Measurements published in the supplement of paper PMC10724198.
± gives the standard deviation of the averaged measurements.

system: Saccharomyces cerevisiae; experiment: protein stability index of tFT-peptide fusion (C-terminal peptide) (PSI (0-1 scale)); higher = more stable (slower turnover); settings: genetic background: wild type; temperature: 30 C
Method: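 Multiplexed protein stability (MPS) profiling in S. cerevisiae. Random 12-aa peptides (tFT-X12 library) are fused to the C-terminus of a sfGFP-mCherry tandem fluorescent timer, after mCherry and a GGGS linker. Cells are FACS-sorted into 8 mCherry/sfGFP bins and deep-sequenced. The protein stability index (PSI) is the read-weighted bin average, scaled from 0 (unstable) to 1 (stable). Only peptides with >10 reads are reported; cells were grown at 30 °C in SC-His with glucose.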
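Further: PSI is a weighted mean of sequencing reads over stability bins, variants kept only with over 10 reads, mCherry proximal and sfGFP distal, peptide attached via GGGS linker.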

Sequence | protein stability index
KTHKKRYRKGNT | 0.725 ± 0.12
KTKKENGRGEKN | 0.697 ± 0.04
KTKKIWKKKSNI | 0.713 ± 0.011
KTKRMKSIKKSK | 0.7099 ± 0.0046
KTNLSNRKKHKG | 0.653 ± 0.051
KTRTGMWDEQGV | 0.701 ± 0.016
KTTSRIKEIIQK | 0.606 ± 0.017
KVEQLPAREAPC | 0.6556 ± 0.0039
KVFHTDSNPNNK | 0.663 ± 0.016
KVGKRQGFSVYV | 0.684 ± 0.022
KVLRKQRLKGRE | 0.5238 ± 0.0015
KVMSLACRLTSE | 0.843 ± 0.11
KVPNEIKRYVFI | 0.66446 ± 8.8e-05
KYIGHSENATSK | 0.71 ± 0.067
KYKVGLWHRVAK | 0.68 ± 0.16
LADFGREKNSLG | 0.703 ± 0.0068
LADLSAPAPCLP | 0.689 ± 0.091
LAGLNDSVRRAV | 0.749 ± 0.036
LAGLRLPNDLGP | 0.712 ± 0.059
LAGSHSRTQGRT | 0.695 ± 0.037
LAGVSSPLPPPP | 0.685 ± 0.025
LAPALSHSPPLT | 0.715 ± 0.078
LARGGAAIGGES | 0.729 ± 0.086
LAVPPSLPPPTR | 0.7254 ± 0.0063
LCDLGLMLFPFV | 0.666 ± 0.032

Sequence | protein stability index
LCFGGLVLFSFG | 0.601 ± 0.035
LCGAVVEGGGEE | 0.5743 ± 0.004
LCLFSVRPARLL | 0.753 ± 0.13
LCLGVLRSDCVV | 0.675 ± 0.011
LCLREPTITTQW | 0.786 ± 0.3
LCPPPRPPRSHL | 0.941 ± 0.039
LCSRICGVVARA | 0.613 ± 0.042
LCVVRGLLCSPL | 0.628 ± 0.0092
LDAMNTSWYVKM | 0.676 ± 0.025
LDARYRSSVGFK | 0.68876 ± 0.00018
LDGAGFLLSWYH | 0.749 ± 0.013
LDGIKVKFRRSL | 0.698 ± 0.013
LDKGNQDHEWTR | 0.654 ± 0.023
LDLAMRQYDLTG | 0.681 ± 0.06
LDSGSVYMSRDI | 0.652 ± 0.015
LDSRSELGRGLK | 0.714 ± 0.018
LDVFPVWSDANA | 0.714 ± 0.031
LEGGAGRPDGTG | 0.671 ± 0.047
LEGILFGPKIAT | 0.6227 ± 0.0049
LEHPAHPTKLQL | 0.7067 ± 0.0033
LEKKRRKNKKEG | 0.787 ± 0.14
LEMTGGACGGGK | 0.675 ± 0.029
LEPGSYRKRKPP | 0.587 ± 0.023
LERKRKYSPHDQ | 0.677 ± 0.025
LERSSHRTEFLS | 0.587 ± 0.032

Sequence | protein stability index
LEYLGFSLSGFR | 0.724 ± 0.016
LFAAPARTSAPC | 0.779 ± 0.055
LFCVAPLGSVSY | 0.652 ± 0.033
LFFGVACSWFSV | 0.621 ± 0.013
LFGFLGVAACVV | 0.483 ± 0.048
LFHAPLFPPSSF | 0.657 ± 0.04
LFLEGWIRKGVR | 0.7427 ± 0.0059
LFLPLPRCHALP | 0.7037 ± 0.0066
LFLSLSGSYRCI | 0.532 ± 0.079
LFPLSSPFPSTS | 0.766 ± 0.23
LFPPPPSPLGHS | 0.75227 ± 0.00052
LFPYPPASALLR | 0.662 ± 0.019
LFSLFFPTCFRF | 0.557 ± 0.0092
LFSPPTFFLFHR | 0.6445 ± 0.0046
LFSSLNLFSSRD | 0.7355 ± 0.0033
LFVEFFACRSFN | 0.722 ± 0.011
LFVSLLGAFVVG | 0.529 ± 0.03
LFYFPVLSGFLA | 0.578 ± 0.002
LGAHRPLLSVLH | 0.661 ± 0.037
LGFPSFFPNVSV | 0.6946 ± 0.0017
LGGGAGAPPSHW | 0.7 ± 0.024
LGGPGAVWGRGR | 0.697 ± 0.0084
LGGWVGGRGVRG | 0.717 ± 0.096
LGIGTWGHRGDD | 0.712 ± 0.015
LGLSTLLVPHTR | 0.743 ± 0.028

Sequence | protein stability index
LGNPVLRFILEK | 0.597 ± 0.094
LGPLILDGATDC | 0.688 ± 0.11
LGQWGGGLSGSV | 0.685 ± 0.033
LGRGEVWYIDRG | 0.696 ± 0.017
LGRRHAYGSALS | 0.708 ± 0.12
LGSAIQGFLILT | 0.5996 ± 0.0017
LGSSGCVLVGWG | 0.683 ± 0.0084
LGSSPPPTLPPP | 0.701 ± 0.031
LGVGVGGRGVRG | 0.745 ± 0.0098
LGVLGGGRRFGV | 0.715 ± 0.019
LGVRSGGSWRAG | 0.792 ± 0.064
LGVVCLGADLLR | 0.693 ± 0.026
LHAPFPLPPPPP | 0.647 ± 0.026
LHCLGFWRVMYG | 0.6538 ± 0.0011
LHCPRICYSPHL | 0.715 ± 0.059
LHEHHSFCFRLL | 0.658 ± 0.1
LHFYSLMEFQCD | 0.695 ± 0.038
LHHPPSPLRNPP | 0.687 ± 0.059
LHHYPLVISGVS | 0.47 ± 0.12
LHPPLPPLPFSA | 0.679 ± 0.017
LHVPPSPFPTPP | 0.679 ± 0.049
LIAGLNLASYGL | 0.643 ± 0.1
LIALSLPSSFVF | 0.594 ± 0.025
LICVSTLAPSGQ | 0.676 ± 0.0078
LIFACIYFSGVV | 0.644 ± 0.047

Sequence | protein stability index
LIGASFGLYPVS | 0.693 ± 0.07
LIHCVSTFRCGE | 0.622 ± 0.026
LIIMPTFDISAP | 0.7273 ± 0.0059
LILEKHEMIGRR | 0.681 ± 0.026
LIPLSLPSCPLS | 0.69 ± 0.085
LITCHSHKPQQI | 0.704 ± 0.098
LKRKRKYKKQGV | 0.786 ± 0.01
LKRRREGEPGKQ | 0.625 ± 0.053
LKRSYKKQRDNV | 0.698 ± 0.14
LLAFSPFLPLPP | 0.667 ± 0.046
LLANLRSSIDIQ | 0.709 ± 0.18
LLCGVLGLAWVW | 0.553 ± 0.029
LLCRGLGSVGRR | 0.63 ± 0.18
LLDLVVTAMCVL | 0.587 ± 0.032
LLESFCVSWCSW | 0.617 ± 0.012
LLFDIYSPTCPS | 0.628 ± 0.02
LLFLPRPPVCSR | 0.649 ± 0.11
LLGRRSHTPDEP | 0.723 ± 0.013
LLHPFPPLCRHP | 0.716 ± 0.018
LLHPSPTPPCPP | 0.696 ± 0.06
LLLLFLCSPSSL | 0.496 ± 0.041
LLLLRPPLGASF | 0.711 ± 0.016
LLLPPPLSASSS | 0.633 ± 0.028
LLLRGSGRSLAL | 0.709 ± 0.0082
LLLRLAASSSLS | 0.703 ± 0.027

Sequence | protein stability index
LLLSQSSFCLTC | 0.637 ± 0.046
LLNAGAMKGRLG | 0.6782 ± 0.0038
LLNNNLNQRIYQ | 0.729 ± 0.019
LLPALPPRCISF | 0.7343 ± 0.005
LLPLLPPAPPSP | 0.687 ± 0.024
LLPPAPLPPSLG | 0.722 ± 0.016
LLPPFPPPSLFS | 0.667 ± 0.01
LLPPPPPPPFSD | 0.653 ± 0.079
LLPPPPPPPSTP | 0.772 ± 0.0067
LLPPSPFTPPPF | 0.742 ± 0.076
LLPVFSYVPTFH | 0.648 ± 0.047
LLQFRATFPTTV | 0.721 ± 0.036
LLRFRSFPSAFF | 0.723 ± 0.084
LLRFSFLHFLFY | 0.6116 ± 0.003
LLRSSASISLKK | 0.738 ± 0.059
LLRVMRAVFSGL | 0.623 ± 0.015
LLSIGTSTLFLL | 0.636 ± 0.017
LLSLVSDFLFGL | 0.698 ± 0.042
LLSPHPSCRPTP | 0.584 ± 0.037
LLSPSPPLLPPL | 0.763 ± 0.036
LLYAFSSFLRAP | 0.647 ± 0.046
LLYSTRRCIFEF | 0.645 ± 0.034
LNIVVTQNKNKK | 0.73 ± 0.035
LNPPYLAPPPPF | 0.739 ± 0.045
LPAPAGPEPPRT | 0.6747 ± 0.00069

Sequence | protein stability index
LPAPPPLPPPHP | 0.712 ± 0.065
LPAPPPPPRPLA | 0.683 ± 0.021
LPASAPFPLSPP | 0.7 ± 0.035
LPDAPCLCSGLL | 0.714 ± 0.013
LPFTLLPPVLSL | 0.596 ± 0.0062
LPGFPPSLLPRL | 0.777 ± 0.059
LPGGVGCVGSPV | 0.721 ± 0.037
LPGLSRATTVYP | 0.679 ± 0.065
LPGPICSPPTGS | 0.693 ± 0.011
LPGSLISPSSPP | 0.721 ± 0.021
LPHLDPPPLPPP | 0.6386 ± 0.0052
LPHSNWAGRVIE | 0.703 ± 0.025
LPHTVITVPDPQ | 0.628 ± 0.065
LPLHRFHPPPPY | 0.715 ± 0.041
LPLPHALGSWSY | 0.7278 ± 0.0061
LPLPPPPAPPPL | 0.7015 ± 0.0012
LPLPVPSLPSAP | 0.728 ± 0.019
LPLSFPTLPPPP | 0.66 ± 0.055
LPLSPRCFSLLG | 0.6774 ± 0.0023
LPLSTLGPLARL | 0.725 ± 0.18
LPLVLSPSPPHP | 0.711 ± 0.061
LPLVSLLCLLPR | 0.668 ± 0.038
LPLYPFGLLLPL | 0.686 ± 0.043
LPPAAPPPPIPA | 0.599 ± 0.0079
LPPASSPPLLTP | 0.696 ± 0.083

Sequence | protein stability index
LPPAVIVCVLPS | 0.586 ± 0.0097
LPPGSTPDSPTL | 0.706 ± 0.028
LPPHSPALRLPR | 0.708 ± 0.0097
LPPIAFPPSFSP | 0.69983 ± 0.00059
LPPLGAPQPPPP | 0.731 ± 0.021
LPPLPLPPATTP | 0.715 ± 0.04
LPPLPLRSLSSP | 0.746 ± 0.025
LPPLPPLILFPL | 0.684 ± 0.082
LPPLPPRVLFNL | 0.5604 ± 0.00084
LPPPAAPPPALA | 0.691 ± 0.032
LPPPHYPHHTAS | 0.679 ± 0.052
LPPPLPPPGPPF | 0.715 ± 0.013
LPPPPHRSRPPP | 0.66 ± 0.06
LPPPPPPPPLLP | 0.696 ± 0.0022
LPPPPPPPPSTP | 0.734 ± 0.0076
LPPPPSPESPLS | 0.722 ± 0.045
LPPPRPHLSFVP | 0.72 ± 0.012
LPPPSPPPPLSP | 0.621 ± 0.01
LPPPSPTGTFPP | 0.7 ± 0.095
LPPPTLASTPPP | 0.77 ± 0.045
LPPPVSPLVCLL | 0.752 ± 0.047
